1 molecule from article PMC6433461 can be followed below.

This experiment concerns the target ParB2^S68C-AlexaFluor488 (B. subtilis) (UniProt P26497).

B1: ParB2^S68C-AlexaFluor488 (natural protein)
chain: MAKGLGKGINALFNQVDLSEETVEEIKIADLRPNPYQPRKHFDDEALAELKESVLQHGILQPLIVRKCLKGYDIVAGERRFRAAKLAGLDTVPAIVRELSEALMREIALLENLQREDLSPLEEAQAYDSLLKHLDLTQEQLAKRLGKSRPHIANHLRLLTLPENIQQLIAEGTLSMGHGRTLLGLKNKNKLEPLVQKVIAEQLNVRQLEQLIQQLNQNVPRETKKKEPVKDAVLKERESYLQNYFGTTVNIKRQKKKGKIEIEFFSNEDLDRILELLSERES
modifications: Alexa Fluor 488 C5 maleimide coupled to the cysteine of S68C; approximate efficiency of 2 dyes per ParB monomer as printed
On to B1, for which the percentage of single DNA molecules condensed by 250 nM ParB^AF alone at permissive forces, Mg2+ buffer, combined lateral MT-TIRF was determined as 83%.
